The source of these data is publication PMC3080401, “Oligomerization of the E. coli Core RNA Polymerase: Formation of (α2ββ'ω)2–DNA Complexes and Regulation of the Oligomerization by Auxiliary Subunits”.

For data set [1], the target named is RNA polymerase core enzyme (alpha2 beta beta' omega);RapA (Escherichia coli;Escherichia coli, UniProt P0A7Z4;P0A8V2;P0A8T7;P0A800;P60240 1-329;1-1342;1-1407;1-91;1-968, |). Nature of the data set: EMSA; 160 nM core, RapA titration; shifts to single-copy core-RapA-DNA complex; EMSA buffer D (1x): 20 mM Tris-acetate, 10 mM Mg acetate, 50 mM K acetate, 1 mM DTT, pH 7.8; native PAGE in 0.5x TBE running buffer; 37 C for the tac and slyD template reactions, otherwise temperature not stated. As to conditions: protein: native;recombinant; tags: ;; chain copies: 2;1;1;1;1; label: 5'-32P. A general note: Mobility shift assays separate free from complexed probe on a gel.

The target of data set [2] is RNA polymerase core enzyme (alpha2 beta beta' omega);NusA (Escherichia coli;Escherichia coli, UniProt P0A7Z4;P0A8V2;P0A8T7;P0A800;P0AFF6 1-329;1-1342;1-1407;1-91;1-495, |). As to the kind of experiment: EMSA; 160 nM core, NusA titration; tandem core-DNA complex dissociated to single copy; EMSA buffer D (1x): 20 mM Tris-acetate, 10 mM Mg acetate, 50 mM K acetate, 1 mM DTT, pH 7.8; native PAGE in 0.5x TBE running buffer; 37 C for the tac and slyD template reactions, otherwise temperature not stated. As to conditions: protein: native;recombinant; tags: ;; chain copies: 2;1;1;1;1; label: 5'-32P.

Turning to CGCGCCAACAGCGACATCAAATTTGTCGCC (mixed) [short DNA probe (Fig 2E)], the binding result in data set [1] and in data set [2] was “binds” in each case.
